Experimental data published in patent publication US20260265321A1, “PEPTIDE AND POLYPEPTIDE INHIBITING THE NF-KB SIGNALING PATHWAY” (Centre National de la Recherche Scientifique, priority 2023, published 2026).

B3: G1-IKKα, full-length wt IKKα fused to the Gluc1 fragment (enzyme, human, UniProt O15111 1-745, looked up)
chain: MERPPGLRPGAGGPWEMRERLGTGGFGNVCLYQHRELDLKIAIKSCRLELSTKNRERWCHEIQIMKKLNHANVVKACDVPEELNILIHDVPLLAMEYCSGGDLRKLLNKPENCCGLKESQILSLLSDIGSGIRYLHENKIIHRDLKPENIVLQDVGGKIIHKIIDLGYAKDVDQGSLCTSFVGTLQYLAPELFENKPYTATVDYWSFGTMVFECIAGYRPFLHHLQPFTWHEKIKKKDPKCIFACEEMSGEVRFSSHLPQPNSLCSLVVEPMENWLQLMLNWDPQQRGGPVDLTLKQPRCFVLMDHILNLKIVHILNMTSAKIISFLLPPDESLHSLQSRIERETGINTGSQELLSETGISLDPRKPASQCVLDGVRGCDSYMVYLFDKSKTVYEGPFASRSLSDCVNYIVQDSKIQLPIIQLRKVWAEAVHYVSGLKEDYSRLFQGQRAAMLSLLRYNANLTKMKNTLISASQQLKAKLEFFHKSIQLDLERYSEQMTYGISSEKMLKAWKEMEEKAIHYAEVGVIGYLEDQIMSLHAEIMELQKSPYGRRQGDLMESLEQRAIDLYKQLKHRPSDHSYSDSTEMVKIIVHTVQSQDRVLKELFGHLSKLLGCKQKIIDLLPKVEVALSNIKEADNTVMFMQGKRQKEIWHLLKIACTQSSARSLVGSSLEGAVTPQTSAWLPPTSAEHDHSLSCVVTPQDGETSAQMIEENLNCLGHLSTIIHEANEEQGNSMMNLDWSWLTE
notes: Expressed in HEK293T cells for GPCA; full-length; also called Gluc1-IKKα; not shown: Gluc1 fragment of Gaussia princeps luciferase and flexible 20 amino acid linker, N-terminal

How the values were obtained:
[1] = target: B3; test: GPCA (Gaussia princeps protein complementation assay), G1-IKKα FL with G2-p100 constructs, NLR
Description: (§1) HEK293T cells were transfected using the reverse transfection method. Transfection mixes containing 100 ng of pSPICA-N2 and 100 ng of pSPICA-N1 plasmids expressing test proteins plus JetPEI® (Polyplus transfection) were dispensed in white 96-well plates. HEK293T cells were then seeded on the DNA mixes at a concentration of 4.2×10^4 cells per well. 48 hours after transfection, cells were washed with 50 μl of PBS and lysed with 40 μl of Renilla lysis buffer (Promega, E2820) for 30 minutes with agitation. Gaussia princeps luciferase enzymatic activity was measured using a Berthold Centro LB960 luminometer by injecting 50 μl per well of luciferase substrate reagent (Promega, E2820) and counting luminescence for 10 seconds. Results are expressed as a fold change normalized over the sum of controls, specified herein as normalized luminescence ratio (NLR) 29. For a given protein pair A/B, NLR=(Gluc1-A+Gluc2-B)/[(Gluc1-A+Gluc2)+(Gluc1+Gluc2-B)]. All interactions were measured in three independent experiments, with each experiment being carried out in triplicate. The expression levels of Gluc1- and Gluc2-fused proteins were checked by Western blotting. 24 hours post-transfection, HEK293T cells were collected, lysed by incubation on ice and centrifuged. Aliquots of cleared supernatants were loaded onto an 10% SDS-PAGE gel.

[2] = target: T1, IKKα(10-667) S176E/S180E homodimer, 6×His tag removed (human, UniProt O15111 10-667); test: ITC
T1 construct: also called purified IKKα
T1 sequence (looked up): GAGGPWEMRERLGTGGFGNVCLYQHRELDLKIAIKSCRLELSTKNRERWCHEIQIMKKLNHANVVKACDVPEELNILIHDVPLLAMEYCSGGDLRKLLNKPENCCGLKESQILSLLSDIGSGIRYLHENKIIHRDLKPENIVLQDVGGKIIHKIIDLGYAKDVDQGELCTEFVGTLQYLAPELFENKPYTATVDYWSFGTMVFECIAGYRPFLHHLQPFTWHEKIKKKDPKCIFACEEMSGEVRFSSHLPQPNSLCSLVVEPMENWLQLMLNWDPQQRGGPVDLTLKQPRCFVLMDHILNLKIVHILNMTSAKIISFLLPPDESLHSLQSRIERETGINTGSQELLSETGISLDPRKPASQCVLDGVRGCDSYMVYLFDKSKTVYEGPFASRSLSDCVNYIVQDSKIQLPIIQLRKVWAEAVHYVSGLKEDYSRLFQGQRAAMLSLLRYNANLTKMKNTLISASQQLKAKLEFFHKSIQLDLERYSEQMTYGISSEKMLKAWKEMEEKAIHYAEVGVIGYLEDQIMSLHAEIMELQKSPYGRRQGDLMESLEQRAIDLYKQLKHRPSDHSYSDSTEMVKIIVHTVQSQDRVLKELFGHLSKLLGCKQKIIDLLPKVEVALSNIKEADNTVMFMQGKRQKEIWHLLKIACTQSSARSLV
Description: (§2) All experiments were performed in ITC buffer (20 mM HEPES pH 8.0, 150 mM NaCl, 1 mM TCEP) unless otherwise stated. […] Just before the ITC experiments, IKKα or IKKβ samples were concentrated, incubated at room temperature for 30 minutes and centrifuged at 11000 g to remove eventual precipitate. The final concentrations of IKKα and IKKβ in the sample cell varied between 22 and 50 μM depending on the measurement. […] The concentration of peptides in the syringe varied between 220 and 975 μM depending on the measurement.
(§3) All ITC experiments were performed at 25° C. The data were fitted to a 1:1 binding model. […] All data were processed using NITPIC software and global fitting of two datasets was carried out using SEDPHAD.

[3] = target: T2, IKKβ(1-669) S177E/S181E homodimer, 6×His tag removed (human, UniProt O14920 1-669); test: ITC
T2 sequence (looked up): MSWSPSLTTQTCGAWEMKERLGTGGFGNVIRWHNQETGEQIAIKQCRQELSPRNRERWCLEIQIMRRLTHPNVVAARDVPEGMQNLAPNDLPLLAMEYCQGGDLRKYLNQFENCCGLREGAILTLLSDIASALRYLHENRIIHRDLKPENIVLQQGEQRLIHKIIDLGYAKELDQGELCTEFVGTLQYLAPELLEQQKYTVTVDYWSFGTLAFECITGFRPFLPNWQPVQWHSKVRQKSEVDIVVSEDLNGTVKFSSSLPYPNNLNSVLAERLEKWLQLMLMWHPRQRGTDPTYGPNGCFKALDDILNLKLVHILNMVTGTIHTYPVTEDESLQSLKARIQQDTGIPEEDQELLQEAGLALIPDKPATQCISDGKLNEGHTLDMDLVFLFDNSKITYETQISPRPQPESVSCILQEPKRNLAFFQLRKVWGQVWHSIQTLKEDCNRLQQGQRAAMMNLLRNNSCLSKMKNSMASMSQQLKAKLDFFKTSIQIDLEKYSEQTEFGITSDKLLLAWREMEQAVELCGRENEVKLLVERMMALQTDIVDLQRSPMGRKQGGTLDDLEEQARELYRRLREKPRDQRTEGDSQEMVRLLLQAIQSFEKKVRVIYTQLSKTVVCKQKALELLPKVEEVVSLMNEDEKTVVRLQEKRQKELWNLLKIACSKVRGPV
Description: as §2, §3

[4] = target: T1, IKKα(10-667) S176E/S180E homodimer, …; test: ITC, 25 °C, synthetic peptide into IKK homodimer, 1:1 model
Description: as §2, §3

[5] = target: T2, IKKβ(1-669) S177E/S181E homodimer, …; test: as above
Description: as §2, §3

G2-p100 1-852 = target: T3, G2-p100 1-852 (UniProt Q00653 1-852); test: GPCA (Gaussia princeps protein complementation assay), G1-IKKα FL with G2-p100 constructs, NLR
T3 construct: range 1-852; not shown: Gluc2 fragment of Gaussia princeps luciferase and flexible 20 amino acid linker, N-terminal
T3 sequence (looked up): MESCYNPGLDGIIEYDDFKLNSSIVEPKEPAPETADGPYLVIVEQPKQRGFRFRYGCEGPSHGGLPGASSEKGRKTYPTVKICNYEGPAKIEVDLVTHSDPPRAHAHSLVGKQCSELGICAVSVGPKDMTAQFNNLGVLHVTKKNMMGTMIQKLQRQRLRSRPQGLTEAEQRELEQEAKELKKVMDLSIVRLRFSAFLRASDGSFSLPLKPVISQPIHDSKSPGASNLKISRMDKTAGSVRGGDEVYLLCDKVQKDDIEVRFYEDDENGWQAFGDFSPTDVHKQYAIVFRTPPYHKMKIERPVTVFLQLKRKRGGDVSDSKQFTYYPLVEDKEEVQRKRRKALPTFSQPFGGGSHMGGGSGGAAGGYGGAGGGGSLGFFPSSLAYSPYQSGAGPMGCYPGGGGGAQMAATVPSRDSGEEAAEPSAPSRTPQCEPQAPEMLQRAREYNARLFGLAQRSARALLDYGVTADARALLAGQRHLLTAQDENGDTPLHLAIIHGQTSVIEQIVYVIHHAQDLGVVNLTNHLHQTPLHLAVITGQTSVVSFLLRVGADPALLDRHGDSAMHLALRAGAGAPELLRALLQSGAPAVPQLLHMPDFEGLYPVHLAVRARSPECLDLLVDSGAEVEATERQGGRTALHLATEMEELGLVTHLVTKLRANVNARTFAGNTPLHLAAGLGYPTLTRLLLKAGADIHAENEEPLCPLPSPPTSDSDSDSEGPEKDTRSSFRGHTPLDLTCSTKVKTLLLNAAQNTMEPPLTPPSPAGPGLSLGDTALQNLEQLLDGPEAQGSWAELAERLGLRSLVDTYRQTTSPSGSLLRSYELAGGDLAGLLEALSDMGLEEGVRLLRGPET
Description: as §1

B1: FL YD/SS (other)
chain: MESCYNPGLDGIIESDSFKLNSSIVEPKEPAPETADGPYLVIVEQPKQRGFRFRYGCEGPSHGGLPGASSEKGRKTYPTVKICNYEGPAKIEVDLVTHSDPPRAHAHSLVGKQCSELGICAVSVGPKDMTAQFNNLGVLHVTKKNMMGTMIQKLQRQRLRSRPQGLTEAEQRELEQEAKELKKVMDLSIVRLRFSAFLRASDGSFSLPLKPVISQPIHDSKSPGASNLKISRMDKTAGSVRGGDEVYLLCDKVQKDDIEVRFYEDDENGWQAFGDFSPTDVHKQYAIVFRTPPYHKMKIERPVTVFLQLKRKRGGDVSDSKQFTYYPLVEDKEEVQRKRRKALPTFSQPFGGGSHMGGGSGGAAGGYGGAGGGGSLGFFPSSLAYSPYQSGAGPMGCYPGGGGGAQMAATVPSRDSGEEAAEPSAPSRTPQCEPQAPEMLQRAREYNARLFGLAQRSARALLDYGVTADARALLAGQRHLLTAQDENGDTPLHLAIIHGQTSVIEQIVYVIHHAQDLGVVNLTNHLHQTPLHLAVITGQTSVVSFLLRVGADPALLDRHGDSAMHLALRAGAGAPELLRALLQSGAPAVPQLLHMPDFEGLYPVHLAVRARSPECLDLLVDSGAEVEATERQGGRTALHLATEMEELGLVTHLVTKLRANVNARTFAGNTPLHLAAGLGYPTLTRLLLKAGADIHAENEEPLCPLPSPPTSDSDSDSEGPEKDTRSSFRGHTPLDLTCSTKVKTLLLNAAQNTMEPPLTPPSPAGPGLSLGDTALQNLEQLLDGPEAQGSWAELAERLGLRSLVDTYRQTTSPSGSLLRSYELAGGDLAGLLEALSDMGLEEGVRLLRGPETRDKLPSTAEVKEDSAYGSQSVEQEAEKLGPPPEPPGGLCHGHPQPQVH
notes: also called G2-p100 FL YD/SS; G2-p100 FL Y15S/D17S; not shown: N-terminal Gluc2 fragment of Gaussia princeps luciferase and the flexible 20 amino acid linker (pSPICA-N2)
binding result [1]: binds

B2: synthetic IκBα pep C308L (peptide)
peptide: EFTEDELPYDDLVFGGQRLTL
notes: also called C308L IκBα pep; IkBα pep C308L
fold enhancement of affinity against IκBα pep wt [2]: 25 fold | fold enhancement of affinity against IκBα pep wt [3]: 15 fold | Kd [4]: 350 nM | N (binding stoichiometry) [4]: 0.65 | TΔS [4]: -4.71 kcal/mol | ΔG [4]: -8.8 kcal/mol | ΔH [4]: -13.5 kcal/mol | Kd [5]: 2600 nM | N (binding stoichiometry) [5]: 0.63 | TΔS [5]: -4.59 kcal/mol | ΔG [5]: -7.61 kcal/mol | ΔH [5]: -12.2 kcal/mol

B3
binding result (G2-p100 1-852): binds
